Measurements published in US20230000771A1 (WISCONSIN ALUMNI RESEARCH FOUNDATION, published 2023).
Where no end group is shown, it is not given here.

Columns and labels:
PD-L1 (SPR target) [1] = target: T1, PD-L1 (SPR target) (UniProt Q9NZQ7 19-238, limits assumed); assay: SPR; drawn table under the sensorgrams, column KD
T1 construct: also called PD-L1/CD274

PD-L1 (SPR target) [2] = target: T1, PD-L1 (SPR target); assay: SPR
PD-L1 (SPR target) [3] = target: T1, PD-L1 (SPR target); assay: SPR; drawn table under the sensorgrams, column Ka
PD-L1 (SPR target) [4] = target: T1, PD-L1 (SPR target); assay: SPR; drawn table under the sensorgrams, column Kd

T1 sequence (Q9NZQ7 19-238 limits assumed): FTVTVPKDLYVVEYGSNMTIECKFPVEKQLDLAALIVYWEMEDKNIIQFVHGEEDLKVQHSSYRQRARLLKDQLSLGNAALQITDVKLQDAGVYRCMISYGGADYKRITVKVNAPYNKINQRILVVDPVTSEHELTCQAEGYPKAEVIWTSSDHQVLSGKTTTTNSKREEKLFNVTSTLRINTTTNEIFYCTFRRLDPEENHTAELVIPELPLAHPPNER

Binder | Kd (PD-L1 (SPR target) [1]) [nM] | strength of KD relative to free peptide (pPD1) (PD-L1 (SPR target) [2]) [fold] | kon (PD-L1 (SPR target) [3]) [M⁻¹ s⁻¹] | koff (PD-L1 (SPR target) [4]) [s⁻¹]
HVVWHRESPSGQTDTLAA (other, not fully specified (C-terminus); also: conjugated to G7 PAMAM dendrimer, attachment site and number per dendrimer not given here, Multivalent conjugate; Only the peptide part is a polypeptide; also called dendrimer-pPD-1; dendrimer-peptide conjugates) [dendrimer-peptide conjugate G7-pPD1 (pPD-1 peptides conjugated to PAMAM dendrimer)] | 2.75 | ~100000 | 252000 | 0.000693
aPD-L1 (full anti-PD-L1 antibody) (antibody, V domains shown) VH: EVQLLESGGGLVQPGGSLSLSCAASGFSFSSGYDMCWVRQAPGKGLEWIACIAAGSAGITYDANWAKGRFTISRDNSKNTLYLQMNSLRAEDTAVYYCARSAFSFDYAMDLWGQGTLVTVSS VL: DIQMTQSPSTLSASVGDRVTITCQASQSISSHLNWYQQKPGKAPKLLIYKASTLASGVPSRFSGSGSGTEFTLTISSLQPDDFATYYCQQGYSWGNVDNVFGGGTKVTVL | 2.09 | – | 583000 | 0.00122
HVVWHRESPSGQTDTLAA (not fully specified (C-terminus), also called free pPD-1) [PD-L1-binding peptide (pPD-1), free peptide] | 119000 | – | – | 0.127
